These results are taken from US6824971 (SLOAN KETTERING INSTITUTE FOR CANCER RESEARCH, dated 2004).

Substitutions are numbered along the chain they refer to. Names may count otherwise.

T1: Recombinant Smad4/DPC4 C-terminal domain, residues 319-552 (human)
T1 chain: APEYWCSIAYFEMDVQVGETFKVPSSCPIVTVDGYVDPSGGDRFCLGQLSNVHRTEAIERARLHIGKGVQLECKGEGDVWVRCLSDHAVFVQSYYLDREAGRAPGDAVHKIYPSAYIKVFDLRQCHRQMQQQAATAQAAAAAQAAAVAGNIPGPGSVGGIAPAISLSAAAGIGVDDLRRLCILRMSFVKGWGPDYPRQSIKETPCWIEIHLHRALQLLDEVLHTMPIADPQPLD

B1: Smad4/DPC4 full-length Gly508Ser (other)
chain: MDNMSITNTPTSNDACLSIVHSLMCHRQGGESETFAKRAIESLVKKLKEKKDELDSLITAITTNGAHPSKCVTIQRTLDGRLQVAGRKGFPHVIYARLWRWPDLHKNELKHVKYCQYAFDLKCDSVCVNPYHYERVVSPGIDLSGLTLQSNAPSSMMVKDEYVHDFEGQPSLSTEGHSIQTIQHPPSNRASTETYSTPALLAPSESNATSTANFPNIPVASTSQPASILGGSHSEGLLQIASGPQPGQQQNGFTGQPATYHHNSTTTWTGSRTAPYTPNLPHHQNGHLQHHPPMPPHPGHYWPVHNELAFQPPISNHPAPEYWCSIAYFEMDVQVGETFKVPSSCPIVTVDGYVDPSGGDRFCLGQLSNVHRTEAIERARLHIGKGVQLECKGEGDVWVRCLSDHAVFVQSYYLDREAGRAPGDAVHKIYPSAYIKVFDLRQCHRQMQQQAATAQAAAAAQAAAVAGNIPGPGSVGGIAPAISLSAAAGIGVDDLRRLCILRMSFVKSWGPDYPRQSIKETPCWIEIHLHRALQLLDEVLHTMPIADPQPLD
notes: Full-length point mutant; also called G508S
B2: Recombinant Smad4/DPC4 C-terminal domain, residues 319-552, O70437 319-552 (protein)
chain: T1 chain
B3: Smad4/DPC4 C-terminal domain, amino acids 294-552 (other)
chain: MPPHPGHYWPVHNELAFQPPISNHPAPEYWCSIAYFEMDVQVGETFKVPSSCPIVTVDGYVDPSGGDRFCLGQLSNVHRTEAIERARLHIGKGVQLECKGEGDVWVRCLSDHAVFVQSYYLDREAGRAPGDAVHKIYPSAYIKVFDLRQCHRQMQQQAATAQAAAAAQAAAVAGNIPGPGSVGGIAPAISLSAAAGIGVDDLRRLCILRMSFVKGWGPDYPRQSIKETPCWIEIHLHRALQLLDEVLHTMPIADPQPLD
notes: Construct for mammalian cells (pCMV5), Flag- or HA-tagged; also called Smad4(C); Smad4 C domain
B4: Smad4/DPC4 C-terminal domain Arg361Cys (other)
chain: B3 chain with R68C
notes: HA-tagged; tumor-derived trimer interface mutation; also called R361C
B5: Smad4/DPC4 C-terminal domain Gly508Ser (other)
chain: B3 chain with G215S
notes: HA-tagged; also called G508S; developmental L3 loop mutation
B6: Smad4/DPC4 C-terminal domain Val370Asp (other)
chain: B3 chain with V77D
notes: HA-tagged; tumor-derived trimer interface mutation; also called V370D

Data set [1] deals with the molecule itself. Nature of the data set: gel filtration of recombinant full-length protein. As for the experimental part: The full-length Smad4/DPC4 proteins, both wild-type and point mutants, were overexpressed at room temperature in E.coli using a pET vector (Novagen). Smad4/DPC4 protein in the soluble fraction of the E. coli lysate was partially purified by ion exchange chromatography (Q-Sepharose) and was applied to a gel filtration column (Superdex200) in 50 mM Tris, 200 mM NaCl, 5 mM DTT, pH 8.0. Aliquots from the fractions corresponding to molecular weight standards between 440 kDa and 25 kDa were taken for immunoblots with a rabbit polyclonal antibody raised against the Smad4/DPC4-C-terminal domain. The results were visualized with the ECL Western analysis and detection system (Amersham). In addition, the WT full-length Smad4/DPC4 was also cloned as a GST-fusion protein and purified to near homogeneity over a glutathione column. The fusion protein was then cleaved with Thrombin and the. Smad4/DPC4 protein was futher purified by anion-exchange chromatography (Source 15Q column).
The fractions were visualized with Coomassie staining. […] Gel filtration fractions of partially purified wild-type and mutant Smad4/DPC4 proteins were analyzed by immunoblots with anti-Smad4/DPC4 antibody.
A general note: SEC sorts molecules by how far they enter the pores of the column.

Data set [2] addresses T1, Recombinant Smad4/DPC4 C-terminal …. Briefly: crystal structure, trimer (three interfaces in total). Conditions: remark: other sources report otherwise.
Data set [3] deals with the molecule itself. Briefly: co-IP of differentially tagged constructs, COS cells. An excerpt: (§1) The full-length Smad4/DPC4 and Smad2, Smad4/DPC4-C-terminal domain encoding amino acids 294–552 (SEQ ID NO.:1) and the Smad2-C-terminal domain encoding amino acids 248–467 (SEQ ID NO.:3) were subcloned into the mammalian expression vector pCMV5. All Smad4/DPC4 point mutations were generated by a polymerase chain reaction (PCR)-based method and were confirmed by DNA sequencing. Mammalian COS-1 cells were transiently transfected with the indicated FLAG- and HA-tagged constructs by the DEAE-dextran method. Two days after transfection, cells were incubated with 200 pM TGF-β1 for one hour. Cells were lysed and subjected to immunoprecipitation followed by immunoblot as described. The wash buffers contained 150 mM NaCl for all immunoprecipitation experiments except for the homo-oligomerization assays of the full-length wild-type Smad4/DPC4 and point mutants, where 250 mM NaCl was employed to better differentiate the WT and mutant activities.
(§2) To assay for homo-oligomerization, mammalian COS-1 cells were transiently transfected with Flag-tagged wild-type Smad4/DPC4-C-terminal domain (WT) and HA-tagged WT or mutant constructs. For hetero-oligomerization, cells were transfected with Flag-tagged Smad2 C-terminal domain and HA-tagged Smad4/DPC4 C-terminal domain WT or mutant constructs together with constitutively active TGF-β type I receptor construct. […]

Data set [4] addresses B3. Briefly: co-IP, Flag-WT with HA-mutant, COS-1 cells.
Description: as §1, §2

For data set [5], the target named is B3. Briefly: co-IP, Flag-WT C-terminal domain with HA-mutant, COS-1 cells.
Description: as §1, §2

Turning to B1, the binding result in data set [1] is given as “binds”.

On to B2, for which the buried surface area in data set [2] was 4800 Å^2. Take B3: the binding result in data set [3] was “binds”. For B4, in data set [4], the binding result was “no binding”.

As to B5, the binding result in data set [5] was “binds”. Take B6: in data set [4], the binding result was “no binding”.
